From article PMC5149402 (Structure (London, England : 1993), 2016)
Numbering of substitutions follows the chain as printed.

B1: rat Cerebellin-1 C34,38S double mutant (trimer) (natural protein, UniProt P63182 22-193, looked up)
chain: QNETEPIVLEGKSLVVSDSNPTSDPTGTALGISVRSGSAKVAFSAIRSTNHEPSEMSNRTMIIYFDQVLVNIGNNFDSERSTFIAPRKGIYSFNFHVVKVYNRQTIQVSLMLNGWPVISAFAGDQDVTREAASNGVLIQMEKGDRAYLKLERGNLMGGWKYSTFSGFLVFPL
B2: full-length rat Cerebellin-1, wild type (hexamer) (natural protein, UniProt P63182 22-193, looked up)
chain: B1 chain with S13C, S17C
B3: rat Neurexin-1α (+SS4), domains LNS2 to LNS6 (domain or fragment)
chain: not shown

Key:
[1] = target: the molecule itself; assay: SEC
[2] = target: rat Neurexin-1β (+SS4), residues S48 to P292 (β-unique N-terminal region plus LNS6) (rat, UniProt Q63373 48-292); assay: ITC
Sequence of rat Neurexin-1β (+SS4), residues S48 to P292 (β-unique N-terminal region plus LNS6) (Q63373 48-292): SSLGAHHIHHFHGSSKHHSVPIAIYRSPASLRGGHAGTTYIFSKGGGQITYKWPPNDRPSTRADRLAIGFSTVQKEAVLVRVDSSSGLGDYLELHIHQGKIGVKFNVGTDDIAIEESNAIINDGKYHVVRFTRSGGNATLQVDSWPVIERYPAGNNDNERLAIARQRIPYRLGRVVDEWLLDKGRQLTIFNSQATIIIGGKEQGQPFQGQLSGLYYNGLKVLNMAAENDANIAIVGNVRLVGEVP

[3] = target: the molecule itself; assay: non-reducing SDS-PAGE
[4] = target: B2; assay: ITC

**Q.** How did the “stoichiometry N” value [1] turn out when B1 was run?
**A.** The value was 3.

**Q.** How did the Kd [2] turn out when B2 was run?
**A.** Its Kd is 47 nM.

**Q.** What about the “stoichiometry N” value [3] of the same binder?
**A.** Its value is 2.

**Q.** Which results are given for B3?
**A.** Kd [4]: 35 nM; stoichiometry N [4]: 0.912 ± 0.045
